In US20030119725A1 (ACTIVE MOTIF, published 2003):
*1 amine or outer side, *2 acyl side, *3 side chain or, on linkers, in order; H or OH if unused. Cysteamide = C(CS[*:3])N[*:1]

Legend:
[1] = biological target: T1, Pep-A, 32-mer peptide derived from HIV-1 reverse transcriptase; test: intrinsic Trp fluorescence of Pep-2 on binding
T1 construct: also called peptide A

[2] = biological target: T2, Pep-B, 51-mer peptide derived from human Cdc25C dual-specificity phosphatase; test: intrinsic Trp fluorescence of Pep-2 on binding
T2 construct: also called peptide B

[3] = biological target: T3, 119 kDa b-galactosidase (β-gal) (UniProt P00722 2-1024 = β-galactosidase); test: intrinsic Trp fluorescence of Pep-2 on binding
T3 construct: also called beta-gal; β-galactosidase

[4] = biological target: the molecule itself; test: intrinsic tryptophan fluorescence against peptide concentration
[5] = biological target: T1, Pep-A, 32-mer peptide derived from …; test: intrinsic Trp fluorescence titration of 1 µM Pep-2
[6] = biological target: T2, Pep-B, 51-mer peptide derived from …; test: intrinsic Trp fluorescence titration of 1 µM Pep-2
[7] = biological target: T3, 119 kDa b-galactosidase (β-gal); test: intrinsic Trp fluorescence titration of 1 µM Pep-2

T3 sequence (P00722 2-1024 limits assumed): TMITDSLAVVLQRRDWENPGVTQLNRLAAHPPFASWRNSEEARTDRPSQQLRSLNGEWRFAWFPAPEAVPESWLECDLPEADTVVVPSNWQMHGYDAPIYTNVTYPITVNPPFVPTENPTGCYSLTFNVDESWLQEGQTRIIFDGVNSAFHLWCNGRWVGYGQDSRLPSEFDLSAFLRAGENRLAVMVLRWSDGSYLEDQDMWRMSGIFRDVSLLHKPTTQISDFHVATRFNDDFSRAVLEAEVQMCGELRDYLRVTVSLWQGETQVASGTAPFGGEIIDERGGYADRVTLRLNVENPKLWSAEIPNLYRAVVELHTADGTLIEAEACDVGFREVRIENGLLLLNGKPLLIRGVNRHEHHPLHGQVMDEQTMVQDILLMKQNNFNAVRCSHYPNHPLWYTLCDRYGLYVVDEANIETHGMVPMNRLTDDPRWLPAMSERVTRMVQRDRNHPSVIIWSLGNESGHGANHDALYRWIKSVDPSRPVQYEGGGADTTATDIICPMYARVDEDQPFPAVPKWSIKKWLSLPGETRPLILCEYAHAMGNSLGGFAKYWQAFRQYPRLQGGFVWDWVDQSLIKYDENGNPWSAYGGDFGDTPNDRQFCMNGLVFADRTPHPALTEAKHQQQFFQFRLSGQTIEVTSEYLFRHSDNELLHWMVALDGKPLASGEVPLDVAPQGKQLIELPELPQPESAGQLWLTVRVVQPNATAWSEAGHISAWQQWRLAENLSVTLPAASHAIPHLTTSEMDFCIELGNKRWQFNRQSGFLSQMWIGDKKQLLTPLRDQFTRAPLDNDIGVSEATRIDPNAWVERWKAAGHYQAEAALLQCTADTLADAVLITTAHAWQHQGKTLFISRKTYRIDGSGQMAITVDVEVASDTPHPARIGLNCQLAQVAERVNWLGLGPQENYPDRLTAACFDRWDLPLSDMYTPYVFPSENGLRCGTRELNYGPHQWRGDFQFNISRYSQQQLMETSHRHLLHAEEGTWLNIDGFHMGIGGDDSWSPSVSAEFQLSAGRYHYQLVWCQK

Row | Binder | blue shift of the fluorescence emission maximum [1] [nm] | blue shift of the fluorescence emission maximum [2] [nm] | blue shift of the fluorescence emission maximum [3] [nm] | binding result [4] | Kd [5] [nM] | concentration of partner at saturation [5] [nM] | saturating quenching of intrinsic tryptophan fluorescence [5] [%] | Kd [6] [nM] | concentration of partner at saturation [6] [nM] | saturating quenching of intrinsic tryptophan fluorescence [6] [%] | Kd [7] [nM] | concentration of partner at saturation [7] [nM] | saturating quenching of intrinsic tryptophan fluorescence [7] [%]
1 | Ac-KETWWETWWTEWSQPKKKRKV-Cysteamide (Synthetic 21-residue peptide: Trp-rich hydrophobic domain, Ser-Gln-Pro spacer, and a Lys-rich domain derived from the SV40 large T antigen NLS; also called Pep-2-cya; peptide vector) [Pep-2 (KETWWETWWTEWSQPKKKRKV-cya)] | 10 | 10 | 10 | no binding (tested: up to a millimolar concentration) | ~120 | ~200 | 36 | ~120 | ~200 | 36 | ~120 | ~50 | 65
2 | GALFLGFLGAAGSTMGAWSQPKSKRKV [MPG peptide vector] | – | – | – | no binding | – | – | – | – | – | – | – | – | –
